From patent US5783681, “Androgen regulation with DNA sequences of rat probasin gene” (University of Manitoba)

What was measured:
Details in all cases: tags: GST fusion, expressed in E. coli; chain copies: 2
[1] = target: T1, GST-AR1 (androgen receptor DNA- and steroid-binding domains) (Rattus norvegicus, UniProt P15207 P15207:541-902); test: footprint; site -236 to -223 protected within probasin 5'-flanking DNA
Procedure: (§1) The DNase I footprinting was performed essentially as described (Von der Ahe et al., 1993; Rennie et al., 1993). Proteins (10 ng to 18 µg) were incubated with 20,000 cpm of the labelled DNA in 100 µl of DNA binding buffer for 30 min at 20° C. After adjusting the samples to 4 mM MgCl_2 and 2.5 CaCl_2 mM, 5 ng of DNase I was added and allowed to digest the DNA for 2 minutes at 20° C. The reaction was stopped by adding 100 µl of stop buffer (0.25% SDS, 0.3M EGTA, and 500 µg/ml of proteinase K) and incubated for 1 hour at 37° C. The samples were extracted with phenol-chloroform; precipitated with 0.2M sodium acetate, 85 µg/ml carrier tRNA, and 2 volumes of ethanol; redissolved in 3 µl of formamide dye solution. After heating at 70° C. for 10 minutes and rapid cooling on ice, the samples were loaded, together with an A+G Maxam-Gilbert sequencing reaction to obtain a purine ladder, on 7% polyacrylamide/urea gels (acrylamide:bis, 30:1) and run (Rennie et al., 1993). The gels were dried and set up for autoradiography.
(§2) The androgen response elements (ARE) are located at −241 to −223 (ARE-1) and −140 to −117 (ARE-2). The sequence of ARE-1 and ARE-2 in the 5'-flanking PB DNA were determined using DNase I footprinting assays with peptides containing the DNA-binding domain of the androgen receptor and later bioassay of the functional domains. […]

[2] = target: T2, GST-AR2 (androgen receptor DNA-binding domain and hinge region) (Rattus norvegicus, UniProt P15207 P15207:541-650); test: as above
Procedure: as §1, §2

[3] = target: T1, GST-AR1 (androgen receptor DNA- and …); test: footprint; site -140 to -117 protected within probasin 5'-flanking DNA
Procedure: as §1, §2

[4] = target: T2, GST-AR2 (androgen receptor DNA-binding …); test: as above
Procedure: as §1, §2

T1 sequence (P15207 541-902, one chain of several): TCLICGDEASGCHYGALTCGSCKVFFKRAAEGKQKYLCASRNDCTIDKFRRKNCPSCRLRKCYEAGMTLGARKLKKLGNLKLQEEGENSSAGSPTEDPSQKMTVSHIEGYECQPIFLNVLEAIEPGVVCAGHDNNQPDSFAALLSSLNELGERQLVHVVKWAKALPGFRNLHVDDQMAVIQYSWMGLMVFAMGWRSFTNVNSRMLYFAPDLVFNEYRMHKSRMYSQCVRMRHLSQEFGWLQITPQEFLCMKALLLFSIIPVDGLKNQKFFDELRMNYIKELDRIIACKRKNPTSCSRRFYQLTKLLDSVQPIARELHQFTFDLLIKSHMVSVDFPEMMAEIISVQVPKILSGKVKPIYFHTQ
T2 sequence (P15207 541-650, one chain of several): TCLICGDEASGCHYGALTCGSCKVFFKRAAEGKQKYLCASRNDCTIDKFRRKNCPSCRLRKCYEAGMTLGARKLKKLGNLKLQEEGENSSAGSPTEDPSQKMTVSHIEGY

B1: probasin ARE-1 (dsDNA)
DNA 1: ATAGCATCTTGTTCTTAGT
DNA 2: ACTAAGAACAAGATGCTAT
binding result [1]: binds
binding result [2]: binds

B2: probasin ARE-2 (dsDNA)
DNA 1: GTAAAGTACTCCAAGAACCTATTT
DNA 2: AAATAGGTTCTTGGAGTACTTTAC
binding result [3]: binds
binding result [4]: binds
